The results in this text go back to publication PMC5852159, “Hydrogen peroxide positively regulates brassinosteroid signaling through oxidation of the BRASSINAZOLE-RESISTANT1 transcription factor” (Nature Communications, 2018).

The test addresses T1, MBP-BZR1 (maltose-binding protein-BRASSINAZOLE-RESISTANT1 fusion) (Arabidopsis thaliana, UniProt Q8S307 1-336).
T1 construct: BRASSINAZOLE-RESISTANT1 (BZR1), Arabidopsis thaliana; full length cDNA without stop codon, recombined into pMAL2CGW (N-MBP); In part of the pull-downs 1 mM H2O2 stood in the buffer, which oxidises BZR1 (mainly at Cys-63); also called recombinant BZR1; source: E. coli, purified (amylose resin); not shown: MBP, N-terminal, kept
T1 sequence (looked up): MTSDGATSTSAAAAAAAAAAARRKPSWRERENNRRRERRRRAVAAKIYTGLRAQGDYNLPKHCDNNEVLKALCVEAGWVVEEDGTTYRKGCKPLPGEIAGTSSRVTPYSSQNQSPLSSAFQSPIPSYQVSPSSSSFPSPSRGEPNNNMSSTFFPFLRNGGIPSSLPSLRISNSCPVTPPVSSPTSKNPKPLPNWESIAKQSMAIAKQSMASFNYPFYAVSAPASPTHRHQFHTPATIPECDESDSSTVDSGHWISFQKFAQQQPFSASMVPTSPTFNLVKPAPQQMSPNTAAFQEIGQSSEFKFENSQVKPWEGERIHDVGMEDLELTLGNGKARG
Description: pull-down; glutathione beads with 1 µg GST fusion incubated with 1 µg MBP or MBP fusion; 20 mM Tris-HCl pH 7.5, 100 mM NaCl, 1 mM EDTA, with or without 1 mM H2O2, 4 °C, 1 h; washed with 300 mM NaCl, 0.1% Nonidet P-40; blots with anti-MBP and anti-GST. Particulars: both partners purified.

B1: GST-TRXh5 (enzyme, Arabidopsis thaliana, UniProt Q39241 1-118, looked up)
chain: MAGEGEVIACHTLEVWNEKVKDANESKKLIVIDFTASWCPPCRFIAPVFAEMAKKFTNVVFFKIDVDELQAVAQEFKVEAMPTFVFMKEGNIIDRVVGAAKDEINEKLMKHGGLVASA
notes: thioredoxin h5 (TRXh5), Arabidopsis thaliana; full length cDNA without stop codon, recombined into pDEST15 (N-GST); also called thioredoxin TRXh5; source: bacteria, purified (glutathione beads); not shown: GST, N-terminal, kept
As for B1, the binding result is recorded as “binds”.
